Laboratory results from IntAct's records for PubMed 12446441.

B1: Ras-related protein Rab-27A (Homo sapiens), P51159-1 (parent)
chain: MSDGDYDYLIKFLALGDSGVGKTSVLYQYTDGKFNSKFITTVGIDFREKRVVYRASGPDGATGRGQRIHLQLWDTAGQERFRSLTTAFFRDAMGFLLLFDLTNEQSFLNVRNWISQLQMHAYCENPDIVLCGNKSDLEDQRVVKEEEAIALAEKYGIPYFETSAANGTNISQAIEMLLDLIMKRMERCVDKSWIPEGVVRSNGHASTDQLSEEKEKGACGC
partner: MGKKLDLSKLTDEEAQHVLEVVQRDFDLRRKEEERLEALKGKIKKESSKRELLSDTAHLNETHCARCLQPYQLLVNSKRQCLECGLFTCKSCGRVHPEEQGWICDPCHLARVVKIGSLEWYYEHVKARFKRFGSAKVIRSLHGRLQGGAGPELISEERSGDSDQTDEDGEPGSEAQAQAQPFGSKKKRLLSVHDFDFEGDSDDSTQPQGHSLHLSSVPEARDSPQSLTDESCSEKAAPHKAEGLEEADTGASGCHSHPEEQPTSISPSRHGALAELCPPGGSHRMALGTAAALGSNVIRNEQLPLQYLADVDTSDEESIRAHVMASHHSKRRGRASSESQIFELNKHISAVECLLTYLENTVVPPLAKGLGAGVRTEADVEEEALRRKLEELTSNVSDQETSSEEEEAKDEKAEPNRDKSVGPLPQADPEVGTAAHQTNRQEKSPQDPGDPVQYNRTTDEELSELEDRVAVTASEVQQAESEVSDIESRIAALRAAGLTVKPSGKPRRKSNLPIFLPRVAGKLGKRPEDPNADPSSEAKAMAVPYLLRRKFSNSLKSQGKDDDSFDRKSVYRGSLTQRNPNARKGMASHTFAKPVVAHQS

Variants of: B1
Settings: with melph_human MLPH

Row | Variant | effect of a mutation on the interaction
1 | W73L | disrupting interaction strength
2 | W73G | disrupting interaction strength
3 | W73S | disrupting interaction strength

Variants of: B1
Settings: with melph_human MLPH
Remark: another data set of the same source

Row | Variant | effect of a mutation on the interaction
4 | T23N | disrupting interaction strength
